The text below walks through data of patent US20220106398A1 (IGM BIOSCIENCES, published 2022).

Experiment [1] addresses T1, human His6-GITR (human, UniProt Q9Y5U5 26-162).
T1 construct: His6-tagged recombinant protein; also called hGITR-His; human GITR-His
T1 sequence: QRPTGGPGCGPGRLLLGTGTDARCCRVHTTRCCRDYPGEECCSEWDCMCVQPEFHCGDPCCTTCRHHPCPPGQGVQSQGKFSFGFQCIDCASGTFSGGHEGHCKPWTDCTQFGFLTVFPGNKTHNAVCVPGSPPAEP
The experiment can be described thus: CARTERRA LSA, scFv periplasmic extract.

Experiment [2] deals with T1, human His6-GITR. The experiment in a line: ELISA, scFv periplasmic extract on coated His6-GITR. In general terms: ELISA stands for enzyme-linked immunosorbent assay.
The target in experiment [3] is T2, cynomolgus monkey His6-GITR (cynomolgus monkey).
T2 construct: His6-tagged recombinant protein; also called cGITR-His; cyno GITR-His
T2 chain: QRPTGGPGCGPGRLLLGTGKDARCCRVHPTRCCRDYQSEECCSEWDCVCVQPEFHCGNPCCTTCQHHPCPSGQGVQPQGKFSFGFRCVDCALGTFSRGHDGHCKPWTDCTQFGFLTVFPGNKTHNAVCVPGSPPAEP
The experiment is described as above.

In experiment [4] the target is T3, mouse His6-GITR (mouse, UniProt O35714 20-153).
T3 construct: His6-tagged recombinant protein; also called mGITR-His; mouse GITR-His
T3 sequence: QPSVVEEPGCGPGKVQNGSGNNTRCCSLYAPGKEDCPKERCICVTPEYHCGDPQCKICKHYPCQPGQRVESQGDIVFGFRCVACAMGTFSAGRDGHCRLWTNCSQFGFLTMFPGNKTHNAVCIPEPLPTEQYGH
The experiment is described as above.

Experiment [5] concerns the target T4, human GITR on HEK 293 cells (human, UniProt Q9Y5U5 26-241).
T4 construct: Bought cell line; also called GITR-expressing 293 cells; HEK 293 cells expressing human GITR (CrownBio, #C2011)
T4 sequence: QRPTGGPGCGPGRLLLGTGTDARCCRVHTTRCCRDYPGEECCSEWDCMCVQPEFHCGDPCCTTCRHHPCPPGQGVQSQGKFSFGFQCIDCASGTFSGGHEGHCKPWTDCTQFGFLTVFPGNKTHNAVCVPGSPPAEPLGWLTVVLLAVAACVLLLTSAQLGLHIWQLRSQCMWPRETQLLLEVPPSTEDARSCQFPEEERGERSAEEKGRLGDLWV
The experiment in a line: flow cytometry on HEK 293 cells expressing human GITR. The method, then:
Cells were washed twice, then stained for 30 minutes at 4° C. with 5 ug/mL mouse anti-human kappa-ALEXA FLUOR® 647 secondary antibody (Southern Biotech #9230-31) diluted in FACS buffer. Cells were washed twice, resuspended in FACS Stain Buffer, and signal was acquired by flow cytometry.

The target in experiment [6] is T5, GITR on GITR/NFkB-luciferase reporter Jurkat cells (UniProt Q9Y5U5 26-241, limits assumed).
T5 sequence (looked up): T4 sequence
The experiment can be described thus: cell-based or functional assay.

Changes are numbered by the printed parent chain. Numbers in names are those of the source.

B1: GITR-Mab-12 scFv (scFv, V domains shown)
VH: QVQLVQSGAEVKKPGASVKVSCKASGYTFTSYAINWVRQAPGQGLEWMGILSPSGGGTSYAPKFQGRVTMTRDTSTSTVYMELSSLRSEDTAVYYCARGPWYFDLWGRGTLVTVSS
VL: DIQMTQSPSSLSASVGDRVTITCRASQGISNSLAWYQQKPGKAPKLLIYAASSLQSGVPSRFSGSGSGTDFTLTISSLQPEDFATYYCQQSYSTPFTFGPGTKVDIK
notes: scFv in periplasmic extract, V5 tag
With B1, in experiment [1], the Kd was determined as 7.5 nM. This molecule displayed a hGITR-His/BKG in experiment [2] of 37.8 fold over background. In experiment [3], this molecule gave a cGITR-His/BKG of 16.9 fold over background. Moreover, in experiment [4], the mGITR-His/BKG was 1 fold over background.

B2: GITR-Mab-19 scFv (scFv, V domains shown)
VH: QVQLVQSGAEVKKPGASVKVSCKASGYTFTSYDINWVRQAPGQGLEWVGIINPSGGSTSYAQKFQGRVTMTRDTSTSTVYMELSSLRSEDTAVYYCARASSGGYYYYYGMDVWGQGTTVTVSS
VL: B1 VL with G28D, S30V, S32W, S91Y, T94Y, F96L, P100Q, K103R, V104L, D105E
notes: as for B1
Regarding B2, binding in experiment [1] was put at a Kd of 10.8 nM. This molecule also registered a hGITR-His/BKG in experiment [2] of 10 fold over background. The cGITR-His/BKG in experiment [3] was 24.6 fold over background. The molecule also came in with a mGITR-His/BKG in experiment [4] of 1.3 fold over background.

B3: GITR-Mab-22 scFv (scFv, V domains shown)
VH: QVQLVQSGAEVKKPGASVKVSCKASGGRFSTYALSWVRQAPGQGLEWMGIINPTDGSTTYAQKFQGRVTMTRDTSTSTVYMELSSLRSEDTAVYYCARDVYSSSWYSDYWGQGTLVTVSS
VL: B1 VL with G28S, S32W, S53T, T94V
notes: as for B1
For the molecule B3, in experiment [1], binding was characterised by a dissociation constant (Kd) of 2.3 nM. Moreover, the hGITR-His/BKG in experiment [2] is 25.7 fold over background. Moreover, the cGITR-His/BKG in experiment [3] is 23.3 fold over background. The molecule also had a mGITR-His/BKG in experiment [4] of 1.2 fold over background.

B4: GITR-Mab-24 scFv (scFv, V domains shown)
VH: QVQLVQSGAEVKKPGASVKVSCKASGGTFNNYAINWVRQAPGQGLEWMGTINPRDGDTTYAQKFQGRVTMTRDTSTSTVYMELSSLRSEDTAVYYCARVGYYGSGSYYSYYGMDVWGQGTTVTVSS
VL: B1 VL with G28N, S30T, S32W, S91A, T94F, F96W, P100Q, D105E
notes: as for B1
As for B4, in experiment [1], binding was characterised by a dissociation constant (Kd) of 38.9 nM. Also, the hGITR-His/BKG in experiment [2] amounted to 19 fold over background. In addition, the cGITR-His/BKG in experiment [3] came to 5.7 fold over background. The same molecule registered a mGITR-His/BKG in experiment [4] of 1.7 fold over background.

B5: GITR-Mab-18 scFv (scFv, V domains shown)
VH: EVQLLESGGGLVKPGGSLRLSCAASGFTFSSYWMSWVRQAPGKGLEWVSGISWNGGTVGYADSVKGRFTISRDDSKNTLYLQMNSLKTEDTAVYYCAKLGIAVKSHWYFDLWGRGTLVTVSS
VL: B1 VL with Q27E, G28S, N31T, S32W, S93T, T94L, F96L, P100G, V104L, D105E
notes: as for B1
As for B5, the Kd in experiment [1] was found to be 1 nM. For the same molecule, the hGITR-His/BKG in experiment [2] came to 17.9 fold over background. For the same molecule, the cGITR-His/BKG in experiment [3] is 17.7 fold over background. Besides, the mGITR-His/BKG in experiment [4] was 1 fold over background.

B6: GITR-Mab-16 scFv (scFv, V domains shown)
VH: QVQLVQSGAEVKKPGASVKVSCKASGGTLSSYAISWVRQAPGQGLEWMGWIDPNSGGTNYAQKFQGRVTMTRDTSTSTVYMELSSLRSEDTAVYYCARQGLLWFGESGSIYYYYGMDVWGQGTTVTVSS
VL: B1 VL with Q27R, G28S, S32Y, A34N, A50G, P95L, F96V, P100Q, D105E
notes: as for B1
Turning to B6, the Kd in experiment [1] turned out to be 0.8 nM. In addition, the hGITR-His/BKG in experiment [2] came out at 24.1 fold over background. In experiment [3], the cGITR-His/BKG is 21.6 fold over background. The mGITR-His/BKG in experiment [4] turned out to be 0.8 fold over background.

B7: GITR-Mab-21 scFv (scFv, V domains shown)
VH: EVQLLESGGGLVQPGGSLRLSCAASGFTFSNHYMSWVRQAPGKGLEWVAVIALDGSYRYYADSVKGRFTISRDNSKNTLYLQMNSLRAEDTAVYYCARVGPGGMDVRGQGTTVTVSS
VL: DIQMTQSPSSLSASVGDRVTITCQASQDISNYLNWYQQKPGKAPKLLIYAASSLQSGVPSRFSGSGSGTDFTLTISSLQPEDFATYYCQQSYNSPRVYTFGQGTKVEIK
notes: as for B1
Regarding B7, binding in experiment [1] was put at a Kd of 2.9 nM. In addition, in experiment [2], the hGITR-His/BKG came out at 13.5 fold over background. The cGITR-His/BKG in experiment [3] worked out at 21.2 fold over background. In addition, in experiment [4], the mGITR-His/BKG turned out to be 1.2 fold over background.

B8: GITR-Mab-20 scFv (scFv, V domains shown)
VH: QVQLVQSGAEVKKPGASVKVSCKASGGTFSNYAISWVRQAPGQGLEWMGVINPRGGSTTYAQKFQGRVTMTRDTSTSTVYMELSSLRSEDTAVYYCARDYSIPYYGMDVWGQGTTVTVSS
VL: DIQMTQSPSSLSASVGDRVTITCRASQSISTYLNWYQQKPGKAPKLLIYDASNLETGVPSRFSGSGSGTDFTLTISSLQPEDFATYYCQQSYSTPLTFGGGTKVEIK
notes: as for B1
As for B8, in experiment [1], binding was put at a Kd of 7.8 nM. This molecule gave a hGITR-His/BKG in experiment [2] of 24.7 fold over background. The molecule further returned a cGITR-His/BKG in experiment [3] of 15.3 fold over background. The molecule also returned a mGITR-His/BKG in experiment [4] of 1.1 fold over background.

B9: GITR-Mab-13 scFv (scFv, V domains shown)
VH: QVQLVQSGAEVKKPGSSVKVSCKASGGTFSSYAISWVRQAPGQGLEWMGGIVPMLGSPHYAQKFQGRVTITADESTSTAYMELSSLRSEDTAVYYCARGSWLVADFQHWGQGTLVTVSS
VL: not shown
notes: as for B1
In experiment [1], B9 had a dissociation constant Kd of 2.6 nM. The molecule further gave a hGITR-His/BKG in experiment [2] of 25.4 fold over background. The molecule further returned a cGITR-His/BKG in experiment [3] of 9.4 fold over background. In experiment [4], this molecule showed a mGITR-His/BKG of 1.1 fold over background.

B10: GITR-Mab-6 IgM/J* (antibody)
heavy: QVQLVQSGAEVKKPGASVKVSCKASGYAFTAYYLHWVRQAPGQGLEWMGWMNPNSGNTGYAQKFQGRVTMTRDTSTSTVYMELSSLRSEDTAVYYCAREGWGYYDGGFDPWGQGTLVTVSS
light: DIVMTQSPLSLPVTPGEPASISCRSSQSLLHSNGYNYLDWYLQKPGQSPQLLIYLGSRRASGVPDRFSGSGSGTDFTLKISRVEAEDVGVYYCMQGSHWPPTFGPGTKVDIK
chain: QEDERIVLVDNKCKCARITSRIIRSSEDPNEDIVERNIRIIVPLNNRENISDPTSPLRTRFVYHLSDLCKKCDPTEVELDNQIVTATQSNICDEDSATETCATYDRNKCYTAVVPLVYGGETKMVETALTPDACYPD
notes: IgM with variant J-chain J* (Y102A); not shown: IgM heavy chain constant region of proprietary vector; light chain constant region of proprietary vector (detected with anti-human kapp)
For the molecule B10, the binding result in experiment [5] is given as “binds”.

B11: GITR-Mab-15 scFv (scFv, V domains shown)
VH: QVQLVQSGAEVKKPGSSVKVSCKASGFTFTTSAVQWVRQAPGQGLEWMGGIIPIFGTANYAQKFQGRVTITADESTSTAYMELSSLRSEDTAVYYCAKGSGYEFPGGSEYFQHWGQGTLVTVSS
VL: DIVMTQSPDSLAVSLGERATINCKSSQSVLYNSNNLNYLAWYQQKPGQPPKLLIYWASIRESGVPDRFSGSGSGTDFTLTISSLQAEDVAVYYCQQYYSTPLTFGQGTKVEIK
notes: as for B1
On to B11, for which the Kd in experiment [1] was determined as 52.1 nM. The hGITR-His/BKG in experiment [2] was found to be 11.4 fold over background. The molecule further showed a cGITR-His/BKG in experiment [3] of 12.3 fold over background. In experiment [4], this molecule returned a mGITR-His/BKG of 1.2 fold over background.

B12: GITR-Mab-3 IgM/J* (antibody, not shown: a dimerising Fc or GST; large carriers)
heavy: QVQLVQSGAEVKKPGASVKVSCKASGYTFTSYDINWVRQAPGQGLEWMGWISGYNGNTNYAQKFQGRVTMTRDTSTSTVYMELSSLRSEDTAVYYCARSHEYYYYYGMDVWGQGTLVTVSS
light: EIVMTQSPATLSVSPGERATLSCRASQSVSSSYLAWYQQKPGQAPRLLIYGASTRATGIPARFSGSGSGTEFTLTISSLQSEDFAVYYCQQYYTTPFTFGPGTKVDIK
chain: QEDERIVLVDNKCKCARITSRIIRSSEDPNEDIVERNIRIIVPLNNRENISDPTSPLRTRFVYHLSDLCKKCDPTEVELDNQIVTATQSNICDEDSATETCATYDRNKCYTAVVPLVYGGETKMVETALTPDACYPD
Consider B12, for which, in experiment [6], it took 5 µg/mL to reach a half-maximal effect (EC50) and the “Max Fold activation” value turned out to be 1.3 fold.

B13: GITR-Mab-14 IgM/J* (antibody, not shown: a dimerising Fc or GST; large carriers)
heavy: EVQLLESGGGLVKPGGSLRLSCAASGFRFSVYWMSWVRQAPGKGLEWVSGISGSGGTTYYADSVKGRFTISRDDSKNTLYLQMNSLKTEDTAVYYCARVRRDGYNYNFDYWGQGTLVTVSS
light: DIQMTQSPSSLSASVGDRVTITCQASQDISNYLNWYQQKPGKAPKLLIFDASSLEAGVPSRFSGSGSGTDFTLTISSLQPEDFATYYCQQANSFPPTFGQGTEVEIK
chain: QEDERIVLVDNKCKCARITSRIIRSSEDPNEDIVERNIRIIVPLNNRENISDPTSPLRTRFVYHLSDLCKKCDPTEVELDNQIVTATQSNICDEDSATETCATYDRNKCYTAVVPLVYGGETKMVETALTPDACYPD
For the molecule B13, in experiment [6], the concentration for a half-maximal effect (EC50) turned out to be 0.34 µg/mL and the “Max Fold activation” value turned out to be 1.6 fold.

B14: GITR-Mab-14 scFv (scFv, V domains shown)
VH: B13 heavy
VL: B13 light
notes: as for B1
In turn, B14 gave a dissociation constant Kd in experiment [1] of 30.3 nM. In experiment [2], this molecule displayed a hGITR-His/BKG of 34 fold over background. In experiment [3], this molecule registered a cGITR-His/BKG of 11.5 fold over background. The same molecule had a mGITR-His/BKG in experiment [4] of 0.9 fold over background.

Usually Kd stands for the equilibrium constant for the complex coming apart. By EC50 is commonly meant the midpoint of the concentration-response curve.
